In PMC9680732:
pKd: −log10 of the molar value.

Target: singly biotinylated A20 zinc finger 4 (ZnF4: S592-K635) (human) (UniProt P21580)
Experiment: BLI

Chain of singly biotinylated A20 zinc finger 4 (ZnF4: S592-K635) (human) (P21580 592-635): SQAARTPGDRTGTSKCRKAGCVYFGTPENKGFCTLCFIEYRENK

pKd: 5.70
Substance: K63-linked triubiquitin (from UniProt P0CG48 1-76)
